Target: the molecule itself
Experiment: cryo-EM structure

B1: AcrA (periplasmic adaptor protein of the AcrAB-TolC multidrug efflux pump) (natural protein)
chain: CDDKQAQQGGQQMPAVGVVTVKTEPLQITTELPGRTSAYRIAEVRPQVSGIILKRNFKEGSDIEAGVSLYQIDPATYQATYDSAKGDLAKAQAAANIAQLTVNRYQKLLGTQYISKQEYDQALADAQQANAAVTAAKAAVETARINLAYTKVTSPISGRIGKSNVTEGALVQNGQATALATVQQLDPIYVDVTQSSNDFLRLKQELANGTLKQENGKAKVSLITSDGIKFPQDGTLEFSDVTVDQTTGSITLRAIFPNPDHTLLPGMFVRARLEEGLNPNAILVPQQGVTRTPRGDATVLVVGADDKVETRPIVASQAIGDKWLVTEGLKAGDRVVISGLQKVRPGVQVKAQEVTADNNQQAASGAQPEQSKS
notes: also called periplasmic adaptor protein AcrA; source: E. coli BL21 (DE3), overexpressed from plasmid pAcBH (acrAB locus), in intact cells
stoichiometry N: 6

— publication PMC6570770, “In situ structure and assembly of the multidrug efflux pump AcrAB-TolC” (Nature Communications, 2019)
